# Test results: patent US20140335107A1 (published 2014)
# Substitutions are numbered along the chain they refer to. Where no end group is shown, it is not given here.
# B1: huMA79b graft variant with HVR-H3 of SEQ ID NO: 94 (huMA79b H3-10), Fab (Fab, name in Kabat numbering, V domains shown)
# VH: EVQLVESGGGLVQPGGSLRLSCAASGYTFSSYWIEWVRQAPGKGLEWVGEILPGGGDTNYNEIFKGRFTISADTSKNTAYLQMNSLRAEDTAVYYCTRRVPIRLDYWGQGTLVTVSS
# VL: DIQMTQSPSSLSASVGDRVTITCKASQSVDYDGDSFLNWYQQKPGKAPKLLIYAASNLESGVPSRFSGSGSGTDFTLTISSLQPEDFATYYCQQSNEDPLTFGQGTKVEIKR
# notes: selected as Fab on phage; also made as soluble Fab for FACS; also called H3-10 mutation
# B2: MA79b-grafted humanized antibody (huMA79b graft), IgG (antibody, V domains shown)
# VH: B1 VH with I102V, R103Y, L104F
# VL: B1 VL
# notes: expressed as an IgG
# B3: huMA79b graft variant with HVR-L2 of SEQ ID NO: 22 (huMA79b L2-2), Fab (Fab, name in Kabat numbering, V domains shown)
# VH: B1 VH with I102V, R103Y, L104F
# VL: B1 VL with S56R, N57K, E59G, S60R
# notes: selected as Fab on phage; also made as soluble Fab for FACS and Biacore; also called L2-2 mutation
# B4: MA79b-grafted humanized antibody variant 17 (huMA79b.v17) (antibody, human IgG1, kappa, V domains shown)
# VH: B1 VH with V48I, F68A, I70F, I102V, R103Y, L104F
# VL: B1 VL with M4L
# notes: IgG
# B5: MA79b-grafted humanized antibody variant L2/H3 (huMA79b L2/H3), IgG (antibody, name in Kabat numbering, V domains shown)
# VH: B1 VH
# VL: B1 VL with S56R, N57K, E59G, S60R
# notes: L2-2 and H3-10 mutations combined on the huMA79b graft; 125I-labeled in the Scatchard assay
# B6: murine anti-CD79b monoclonal antibody MA79b (antibody, V domains shown)
# VL: DIVLTQSPASLAVSLGQRATISCKASQSVDYDGDSFLNWYQQKPGQPPKLFIYAASNLESGIPARFSGSGSGTDFTLNIHPVEEEDAATYYCQQSNEDPLTFGAGTELELKR
# VH: EVQLQQSGAELMKPGASVKISCKATGYTFSSYWIEWVKQRPGHGLEWIGEILPGGGDTNYNEIFKGKATFTADTSSNTAYMQLSSLTSEDSAVYYCTRRVPVYFDYWGQGTSVTVSS
# notes: murine monoclonal IgG; 125I-labeled in the Scatchard assay; also called murine CD79b antibody
# Tests used:
# [1] = target: T1, extracellular domain of human CD79b (huCD79becd) (human, UniProt P40259 29-159); assay: phage selection, Fab on phage
# T1 construct: expressed in CHO cells
# T1 sequence: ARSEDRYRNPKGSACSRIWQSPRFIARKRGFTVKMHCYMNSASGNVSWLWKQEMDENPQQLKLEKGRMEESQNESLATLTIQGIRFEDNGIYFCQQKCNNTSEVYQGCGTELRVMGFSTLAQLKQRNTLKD
# Procedure: For phage selection, the extracellular domain of CD79b (huCD79becd) (2 μg/ml) was immobilized in PBS on MaxiSorp microtiter plates (Nunc) overnight at 4° C. Plates were blocked for at least 1 h using Casein Blocker (Pierce). Phage were harvested from the culture supernatant and suspended in PBS containing 0.5% BSA and 0.05% Tween 20 (PBSBT). Following addition of the phage library and phage selection for 2 h, microtiter wells were washed extensively with PBS containing 0.05% Tween 20 (PBST) to remove unbound phage and bound phage were eluted by incubating the wells with 100 mM HCl for 30 min. Selection stringency may be increased during successive rounds of selection by increasing the number of washes with PBST or by incubating with soluble huCD79becd for increasing time periods prior to elution.
# human CD79b [2] = target: T2, human CD79b (human, UniProt P40259 29-229); assay: FACS on DoHH-2 cells, Fab (data not shown)
# T2 construct: endogenous CD79b on B-cell lines (BJAB, BJAB-luciferase, DoHH-2); also called PRO36249; CD79b expressed on the surface of BJAB-luciferase cells
# T2 sequence: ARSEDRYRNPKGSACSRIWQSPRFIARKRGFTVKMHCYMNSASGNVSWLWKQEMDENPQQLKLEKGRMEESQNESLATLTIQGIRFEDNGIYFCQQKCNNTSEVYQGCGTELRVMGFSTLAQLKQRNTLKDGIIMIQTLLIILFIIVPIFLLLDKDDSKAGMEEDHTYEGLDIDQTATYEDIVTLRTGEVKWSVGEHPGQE
# Procedure: To further determine binding of the Fab variants of MA79b-grafted “humanized” antibody or antibody variants, binding of Fab and/or IgG variants to DoHH-2 cells were analyzed using FACS analysis. Further, binding of MA79b-grafted “humanized” antibody variants to BJAB-luciferase cells was analyzed using FACS analysis.
# For FACS analysis of Fab variants of MA79b-grafted “humanized” antibody variants (MA79b-grafted “humanized” antibody (IgG version used as a control)), DoHH-2 cells (1×10⁶ in 100 μl volume) were first incubated with or without 1 μg of original mouse anti-CD79b monoclonal antibody (MA79b) for 30 minutes, before adding 1 μg of individual Fab variant (or control antibody).
# [3] = target: T1, extracellular domain of human CD79b …; assay: FACS analysis, IgG (data not shown)
# [4] = target: T1, extracellular domain of human CD79b …; assay: Biacore (SPR), IgG
# Procedure: (§1) Binding of Fab and IgG variants of MA79b, the MA79b-grafted “humanized” antibody or MA79b-grafted “humanized” antibody variants to immobilized huCD79becd or huCD79b-Fc or the 16 amino acid peptide containing the epitope for MA79b was measured by surface plasma resonance. Affinity determinations were performed by surface plasmon resonance using a BIAcore™-2000. The antigen, huCD79becd or huCD79b-Fc was immobilized (approximately 50-200 RU) in 10 mM sodium acetate pH 4.8 on a CM5 sensor chip. Due to a large avidity effect, affinity measurements were sensitive to the amount of huCD79becd immobilized. For this reason, affinities, determined for samples run on different days, were normalized to MA79b that was run along side as a standard. In experiments that measured binding to the 16 amino acid peptide containing the epitope for MA79b ([…]) (SEQ ID NO: 16), the biotinylated peptide was captured (approximately 20 RU) on a streptavidin coated sensor chip. Purified MA79b-grafted “humanized” antibody variant (as Fab or IgG) (a 2-fold serial dilution of 0.5 to 1000 nM in PBST) was injected at a flow rate of 30 μL/min. Each sample was analyzed with 4-minute association and 10-minute disassociation. After each injection the chip was regenerated using 10 mM Glycine pH 1.7. […]
# [5] = target: T3, extracellular domain of human CD79b fused to Fc (huCD79becd-Fc) (human, UniProt P40259 29-159); assay: Biacore (SPR), Fab
# T3 construct: expressed in CHO cells; also called huCD79b-Fc; not shown: Fc part of the fusion is not described
# T3 sequence: T1 sequence
# Procedure: as §1
# [6] = target: T1, extracellular domain of human CD79b …; assay: Biacore (SPR), IgG (FIG. 12)
# Procedure: as §1
# [7] = target: T4, 16 amino acid peptide containing the epitope for MA79b (ARSEDRYRNPKGSACK) (human, also: biotinylated (site not given here)); assay: Biacore (SPR), biotinylated peptide captured on streptavidin chip
# T4 construct: synthesized; captured on a streptavidin coated sensor chip; also called biotinylated peptide
# T4 peptide: ARSEDRYRNPKGSACK
# Procedure: as §1
# human CD79b [8] = target: T2, human CD79b; assay: Scatchard analysis, 125I-labeled IgG competed with unlabeled IgG on BJAB cells stably expressing cynomolgus CD79b and endogenous human CD79b
# Procedure: To further determine binding of the IgG variants having changes in HVR-L2 and HVR-H3 (huMA79b L2/H3), binding of iodinated IgG variants to BJAB cells expressing human CD79b and cynomologous CD79b was analyzed and Scatchard analysis was performed.
# For Scatchard analysis, 0.5 nM I¹²⁵ labeled MA79b or huMA79b L2/H3 was competed against unlabeled MA79b or huMA79b L2/H3, respectively, ranging from 50 to 0.02 nM (12 step 1:2 serial dilution) in the presence of a transfected BJAB line stably expressing cynomologous-CD79b and endogenous human-CD79b. After a four hour incubation at 4° C., cells were washed and cell pellet counts were read by a gamma counter (1470 WIZARD Automatic Gamma Counter; Perkin Elmer, Walthem, Mass.). All points were done in triplicate and counted for 10 minutes. The average CPM was used for Kd calculation using the New Ligand (Genentech, South San Francisco, Calif.) program.
# [9] = target: T3, extracellular domain of human CD79b …; assay: Biacore (SPR), Fab against IgG on immobilized huCD79becd-Fc
# Procedure: as §1
binder,measurement,setting,value
B1,binding result,[1],binds
same,binding result,human CD79b [2],binds
B2,fold reduction of binding affinity,[3],> 100 fold
same,fold loss of binding affinity,[4],> 50 fold
B3,fold improvement in monomeric binding compared to MA79b (Fab),[5],5 fold
B4,binding result,[6],binds
B5,binding result,[7],binds
same,Kd,human CD79b [8],0.52 nM
B6,fold avidity component (dimeric IgG binding against monomeric Fab binding),[9],100 fold
same,Kd,human CD79b [8],0.63 nM
